Laboratory results published in publication PMC3299299, “Recombinant Expression and Characterization of Human and Murine ACE2: Species-Specific Activation of the Alternative Renin-Angiotensin-System” (International Journal of Hypertension, 2012).

Experiments:
Assay type in all cases: biochemical
Ang 1–10 = experiment: In vitro kinetic assay, Ang 1–10 cleavage to Ang 1–9, HPLC quantification
Protocol: (§1) Enzyme reactions were started by adding a defined amount of enzyme to substrate dilutions in MES-buffer (50 mM MES, 300 mM NaCl, 10 μM ZnCl2, 0.01% Brij-35, pH 6.5) which were previously equilibrated at 37°C. Aliquots of the reaction mixes were taken every 10 minutes and stopped by addition of 0.5 M EDTA to a final concentration of 100 mM before HPLC-based quantification of peptides.
(§2) The concentration of peptides in enzymatic reactions was quantified by detection of peaks eluted from the HPLC column using an in-line diode array detector. Chromatography was performed by running a gradient on a reversed-phase matrix (Source 5RPC, 4.6×150 mm, 5 μm) with 0.08% H3PO4 in water as mobile phase A and 40% acetonitrile in water and 0.08% H3PO4 as mobile phase B. The optical density at 280 nm was recorded inline for all eluting peaks, and peptide concentrations were calculated via calibration curves for each individual peptide.
The turnover rates for natural ACE2 substrates were determined by in vitro incubation with excess amounts of substrate followed by reversed-phase HPLC analysis. […] Each time point was analyzed in true triplicates and standard deviations are given in the graphs together with linear regressions of the measured values.

[1] = tested on: human RAS in blood plasma; experiment: Ex vivo incubation of renin-spiked human plasma, RAS-Fingerprinting by LC-MS/MS; conditions: human plasma + 100 pg/mL recombinant human renin, 10 μM Lisinopril present, without or with 5 μg/mL enzyme, 10 min 37°C (Fig 3b); 0 = below quantification limit (2 pg/mL plasma)
Protocol: Anticoagulated blood was collected from healthy volunteers, and plasma was separated by 10 minutes centrifugation at 3000 RCF. […] After 10 minutes of incubation at 37°C, in the presence or absence of Lisinopril (Sigma), samples were chilled on ice and immediately subjected to LC-MS/MS analysis.
Plasma samples were spiked with 100 pg/mL stable-isotope-labeled internal standards and subjected to solid-phase extraction using Sep-Pak cartridges (Waters) according to manufacturers protocol. Following elution and solvent evaporation, samples were reconstituted in 50 μL 50% acetonitrile/0.1% formic acid and subjected to LC-MS/MS analysis using a reversed-phase analytical column (Luna C18, Phenomenex) using a gradient ranging from 10% acetonitrile/0.1% formic acid to 70% acetonitrile/0.1% formic acid in 9 minutes. The eluate was analyzed in line with a QTRAP-4000 mass spectrometer (AB Sciex) operated in the MRM mode using dwell times of 25 msec at a cone voltage of 4000 volts and a source temperature of 300°C. For each peptide and corresponding internal standards, two different mass transitions were measured. Angiotensin peptide concentrations were calculated by relating endogenous peptide signals to internal standard signals provided that integrated signals achieved a signal-to-noise ratio above 10.
RAS-Fingerprints were measured by LC-MS/MS as indicated in Section 2. Samples were incubated in the absence (a) or presence (b) of 10 μM of the ACE inhibitor Lisinopril. In this figure, the diameter of the spheres reflects the concentration of the respective peptide metabolite, which is also given in pg/mL next to each individual sphere. 0 pg/mL indicates concentrations below quantification limits, which are defined by a signal-to-noise ratio below 10. Furthermore, the amino acid sequence of each angiotensin metabolite is schematically given in brackets beside the corresponding sphere. The sequence annotation is based on the decapeptide Angiotensin I (1–10) which is N- or C-terminally cleaved by the indicated proteases. […]

Ang 1–8 = experiment: In vitro kinetic assay, Ang 1–8 cleavage to Ang 1–7, HPLC quantification; conditions: ratio of k cat of the same enzyme for the two substrates
Protocol: as §1, §2
The turnover rates for natural ACE2 substrates were determined by in vitro incubation with excess amounts of substrate followed by reversed-phase HPLC analysis. […] The resulting time courses are shown in the graphs. […] Each time point was analyzed in true triplicates and standard deviations are given in the graphs together with linear regressions of the measured values.

B1: rmACE2: extracellular domain of murine ACE2 recombinantly expressed in CHO cells (protein)
chain: QSLTEENAKTFLNNFNQEAEDLSYQSSLASWNYNTNITEENAQKMSEAAAKWSAFYEEQSKTAQSFSLQEIQTPIIKRQLQALQQSGSSALSADKNKQLNTILNTMSTIYSTGKVCNPKNPQECLLLEPGLDEIMATSTDYNSRLWAWEGWRAEVGKQLRPLYEEYVVLKNEMARANNYNDYGDYWRGDYEAEGADGYNYNRNQLIEDVERTFAEIKPLYEHLHAYVRRKLMDTYPSYISPTGCLPAHLLGDMWGRFWTNLYPLTVPFAQKPNIDVTDAMMNQGWDAERIFQEAEKFFVSVGLPHMTQGFWANSMLTEPADGRKVVCHPTAWDLGHGDFRIKMCTKVTMDNFLTAHHEMGHIQYDMAYARQPFLLRNGANEGFHEAVGEIMSLSAATPKHLKSIGLLPSDFQEDSETEINFLLKQALTIVGTLPFTYMLEKWRWMVFRGEIPKEQWMKKWWEMKREIVGVVEPLPHDETYCDPASLFHVSNDYSFIRYYTRTIYQFQFQEALCQAAKYNGSLHKCDISNSTEAGQKLLKMLSLGNSEPWTKALENVVGARNMDVKPLLNYFQPLFDWLKEQNRNSFVGWNTEWSPYADQSIKVRISLKSALGANAYEWTNNEMFLFRSSVAYAMRKYFSIIKNQTVPFLEEDVRVSDLKPRVSFYFFVTSPQNVSDVIPRSEVEDAIRMSRGRINDVFGLNDNSLEFLGIHPTLEPPYQPPVT
Ang 1–10-related turnover rate of rmACE2 as share of the rate for rhACE2 (Ang 1–10): 7% | k cat, Ang 1–10 ≥ Ang 1–9 (Ang 1–10; […] enzyme, 65 μM Ang 1–10, MES buffer pH 6.5, 37°C, HPLC, mean of substrate degradation and product formation rates related to enzyme concentration, triplicates): 0.0013 s⁻¹ | Ang (1–7) concentration in plasma [1]: < 2 pg/mL | turnover number for Ang 1–8 compared to Ang 1–10 (Ang 1–8): 492 fold
